Patent CN116082499A (DONGGUAN PENGZHI BIOTECHNOLOGY CO LTD, dated 2023)

T1: DENV-IV抗原(一种NS1蛋白，购自菲鹏) (dengue virus serotype 4 (DENV-IV), UniProt P09866 775-1126, limits assumed)
T1 construct: also called DENV-IV antigen
T1 sequence (looked up): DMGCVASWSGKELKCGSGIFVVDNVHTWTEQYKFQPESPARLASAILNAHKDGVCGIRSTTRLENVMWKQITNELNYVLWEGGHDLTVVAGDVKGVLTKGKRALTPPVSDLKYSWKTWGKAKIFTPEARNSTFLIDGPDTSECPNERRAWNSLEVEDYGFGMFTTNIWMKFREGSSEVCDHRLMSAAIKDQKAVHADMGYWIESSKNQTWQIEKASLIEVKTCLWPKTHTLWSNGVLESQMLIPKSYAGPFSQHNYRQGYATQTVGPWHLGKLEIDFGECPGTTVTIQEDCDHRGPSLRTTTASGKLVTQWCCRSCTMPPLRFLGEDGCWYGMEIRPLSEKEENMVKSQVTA


How the values were obtained:
[1] = target: T2, DENV抗原 (DENV阳性血清) (dengue virus (DENV), serotype ); experiment: sandwich ELISA, antibody at 12.5 ng/ml captured on goat anti-mouse IgG, DENV-positive serum, HRP-labelled DENV mAb
T2 construct: also called DENV antigen in DENV-positive serum

[2] = target: T2, DENV抗原 (DENV阳性血清); experiment: sandwich ELISA, antibody at 6.25 ng/ml captured on goat anti-mouse IgG, DENV-positive serum, HRP-labelled DENV mAb
[3] = target: T1, DENV-IV抗原(一种NS1蛋白，购自菲鹏)
[4] = target: T2, DENV抗原 (DENV阳性血清); experiment: sandwich ELISA, antibody at 1.5625 ng/ml captured on goat anti-mouse IgG, DENV-positive serum, HRP-labelled DENV mAb
[5] = target: T2, DENV抗原 (DENV阳性血清); experiment: sandwich ELISA, antibody at 0 ng/ml (blank without antibody), goat anti-mouse IgG, DENV-positive serum, HRP-labelled DENV mAb
[6] = target: T2, DENV抗原 (DENV阳性血清); experiment: sandwich ELISA, antibody at 3.125 ng/ml captured on goat anti-mouse IgG, DENV-positive serum, HRP-labelled DENV mAb
[7] = target: T2, DENV抗原 (DENV阳性血清); experiment: sandwich ELISA, antibody at 0.78125 ng/ml captured on goat anti-mouse IgG, DENV-positive serum, HRP-labelled DENV mAb

Binder	OD (450nm, 参考630nm) [1] [OD]	OD (450nm, 参考630nm) [2] [OD]	Kd [3] [nM]	koff [3] [s⁻¹]	kon [3] [M⁻¹ s⁻¹]	OD (450nm, 参考630nm) [4] [OD]	OD (450nm, 参考630nm) [5] [OD]	OD (450nm, 参考630nm) [6] [OD]	OD (450nm, 参考630nm) [7] [OD]
DF-5M32RMb1 (antibody, mouse IgG1, kappa, V domains shown, also called Anti-DF 5M32; Anti-DF 5M32单克隆抗体 (recombinant)) VH: QVQLQQSGAELARPGASVKLSCKASGYTFINYWMQWVKQRPGQGLEWIGAIYPGDGDTRYTQNFKGKAALTADKSSSTAYMQLSSLASEDSAVYYCATGTEGILDYWGQGTSVTVSS VL: DAVMTQTPLTLSVLIGQPASLSCKSSQSLLESDGKTYLNWLFQRPGQSPKRLIYLVSKLESGVPDRFTGSGSGTEFTLKISRVEAEDLGVYYCWQATHHPLTFGTGTNLELKR	2.1	1.52	59.6	0.00128	21400	0.654	0.039	0.963	0.489
DF-5M32RMb2 (antibody, mouse IgG1, kappa, V domains shown, also called DF-8F13RMb2) VH: QVQLQQSGAELARPGASVKLSCKASGYTFLNYWMQWVKQRPGQGLEWIGAIYPGDGDTRYTQNFKGKAALTADKSSSTAYMQLSSLASEDSAVYYCATGTEGLLDYWGQGTSVTVSS VL: DAVMTQTPLTLSVLIGQPASLSCKSSQSLLESDGKTYLNWLFQRPGQSPKRLIYLVSKLESGVPDRFTGSGSGTEFTLKISRVEAEDLGVYYCWQATHHPLTFGTGTNLELKR	2.04	1.47	57.8	0.00184	31900	0.603	0.031	0.96	0.471
DF-5M32RMb4 (antibody, mouse IgG1, kappa, V domains shown, also called DF-8F13RMb4) VH: QVQLQQSGAELARPGASVKLSCKASGYTFINYWMQWVKQRPGQGLEWIGAIYPGDGDTRYTQNFKGKAALTADKSSSTAYMQLSSLASEDSAVYYCATGTEGLLDYWGQGTSVTVSS VL: DAVMTQTPLTLSVLIGQPASLSCKSSQSLLESDGKTYLNWLFQRPGQSPKRLIYLVSKLESGVPDRFTGSGSGTEFTLKISRVEAEDLGVYYCWQATHHPLTFGTGTNLELKR	2.01	1.49	52.9	0.00176	33200	0.631	0.032	0.923	0.482
DF-5M32RMb3 (antibody, mouse IgG1, kappa, V domains shown, also called DF-8F13RMb3) VH: QVQLQQSGAELARPGASVKLSCKASGYTFLNYWMQWVKQRPGQGLEWIGAIYPGDGDTRYTQNFKGKAALTADKSSSTAYMQLSSLASEDSAVYYCATGTEGILDYWGQGTSVTVSS VL: DAVMTQTPLTLSVLIGQPASLSCKSSQSLLESDGKTYLNWLFQRPGQSPKRLIYLVSKLESGVPDRFTGSGSGTEFTLKISRVEAEDLGVYYCWQATHHPLTFGTGTNLELKR	1.97	1.5	63.6	0.00186	29300	0.622	0.043	0.952	0.479
